Source: patent US20260250338A1 (Molecular Partners, published 2026)

target: T1, CD16aV allotype of human CD16a expressed on Jurkat-Lucia-NFAT-CD16 Reporter cells (InvivoGen) (human, UniProt P08637 17-254); assay: cell-based or functional assay
T1 sequence (P08637 17-254 F176V): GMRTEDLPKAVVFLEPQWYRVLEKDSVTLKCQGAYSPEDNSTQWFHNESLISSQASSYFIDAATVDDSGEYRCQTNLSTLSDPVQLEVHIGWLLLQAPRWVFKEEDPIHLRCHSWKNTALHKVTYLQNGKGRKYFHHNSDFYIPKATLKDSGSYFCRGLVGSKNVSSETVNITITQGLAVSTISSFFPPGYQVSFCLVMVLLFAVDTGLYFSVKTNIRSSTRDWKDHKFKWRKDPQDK

Binder	EC50 (pM), ADCC reporter assay (luminescence), SKOV3 target cells, E:T 5:1, 5 h [pM]
Construct No. 9 (SEQ ID NO: 14), 2D (HER2 × CD16a), DARPin #3 with N-terminal HER2 binder of SEQ ID NO: 8 (designed binder) MRGSHHHHHHGSDLGKKLLEAARAGQDDEVRELLKAGADVNAKDEYGLTPLYLATAHGHLEIVEVLLKAGADVNAVDAIGFTPLHLAAFIGHLEIAEVLLKAGADVNAQDKFGKTPADIAAGAGNEDIAEVLQKAAGSPTPTPTTPTPTPTTPTPTPTGSDLGKKLLQAARAGQLDEVRELLKAGADVNAKDEQGRTPLHIAAASGHLEIVEVLLKAGADVNAKDWFGITPLHIAAWWGHLEIVEVLLKAGADVNAKDQEGRTPLHIAAAIGHLEIVEVLLKAGADVNAQDKSGKTPADLAARAGHQDIAEVLQKAA	1.6

target: T1, CD16aV allotype of human CD16a …; assay: cell-based or functional assay; remark: another data set of the same source

Binder	EC50 (pM), DDCC reporter assay (luminescence), Kasumi-1 target cells, E:T 1:1, 24 h [pM]	Top (RLU), DDCC reporter assay (luminescence), Kasumi-1 target cells [RLU]
Construct No. 21 (SEQ ID NO: 90), CD117 × CD16a, CD117 binder SEQ ID NO: 85 and DARPin #2 (designed binder) MRGSHHHHHHGSDLGAKLLKAAQSGQDDEVRILLAAGADVNAKDKDGYTPLHLAAREGHLEIVEVLLKAGSDVNAKDYYGETPLHQAAEYGHLEIVEVLLKAGADVNAQDEWGATPADLAAQQGHEDIAEVLQKAAGSPTPTPTTPTPTPTTPTPTPTGSDLGQKLLRAAKKGQDDEVRELLKAGADVNAKDEQGWTPLHIAAWKGHLEIVEVLLKAGADVNAKDVFDWTPLHVAAHFGHLEIVEVLLKAGADVNAQDRAGETPADLAAQAGHEDIAEVLQKAA	32.3	23200
Construct No. 24 (SEQ ID NO: 93), CD117 × CD16a, CD117 binder SEQ ID NO: 88 and DARPin #2 (designed binder) MRGSHHHHHHGSDLGHKLLHAAAWGQDDEVRILLAAGADVNAKDQSGWTPLHVAAWYGHLEIVEVLLKAGADVNAKDLKGETPLHLAALVGHLEIVEVLLKAGADVNAQDIAGDTPADLAAIAGHEDIAEVLQKAAGSPTPTPTTPTPTPTTPTPTPTGSDLGQKLLRAAKKGQDDEVRELLKAGADVNAKDEQGWTPLHIAAWKGHLEIVEVLLKAGADVNAKDVFDWTPLHVAAHFGHLEIVEVLLKAGADVNAQDRAGETPADLAAQAGHEDIAEVLQKAA	96.1	8470
Construct No. 20 (SEQ ID NO: 89), CD117 × CD16a, CD117 binder SEQ ID NO: 84 and DARPin #2 (designed binder) MRGSHHHHHHGSDLGQKLLKAAQYGQDDEVRILLAAGADVNAKDWAGKTPLHVAAEAGHLEIVEVLLKAGADVNAKDKAGETPLHLAAEQGHLEIVEVLLKAGADVNAQDEWGQTPADLAAYYGLEDIAEVLQKAAGSPTPTPTTPTPTPTTPTPTPTGSDLGQKLLRAAKKGQDDEVRELLKAGADVNAKDEQGWTPLHIAAWKGHLEIVEVLLKAGADVNAKDVFDWTPLHVAAHFGHLEIVEVLLKAGADVNAQDRAGETPADLAAQAGHEDIAEVLQKAA	86.2	26500
Construct No. 22 (SEQ ID NO: 91), CD117 × CD16a, CD117 binder SEQ ID NO: 86 and DARPin #2 (designed binder) MRGSHHHHHHGSDLGKKLLQAARAGQLDEVRELLKAGADVNAKDVYGLTPLHLAAREGHLEIVEVLLKAGADVNAKDAYGETPLHLAAEAGHLEIVEVLLKAGADVNAKDEWGETPLNVAARAGHQDIAEVLQKAAGSPTPTPTTPTPTPTTPTPTPTGSDLGQKLLRAAKKGQDDEVRELLKAGADVNAKDEQGWTPLHIAAWKGHLEIVEVLLKAGADVNAKDVFDWTPLHVAAHFGHLEIVEVLLKAGADVNAQDRAGETPADLAAQAGHEDIAEVLQKAA	25.2	22000
Construct No. 23 (SEQ ID NO: 92), CD117 × CD16a, CD117 binder SEQ ID NO: 87 and DARPin #2 (designed binder) MRGSHHHHHHGSDLGKKLLKAASWGQDDEVRILLAAGADVNAKDNSGWTPLHAAAWYGHLEIVEVLLKAGADVNAKDKTGLTPLHKAAHVGHLEIVEVLLKAGADVNAQDEWGATPADLAASTGHEDIAEVLQKAAGSPTPTPTTPTPTPTTPTPTPTGSDLGQKLLRAAKKGQDDEVRELLKAGADVNAKDEQGWTPLHIAAWKGHLEIVEVLLKAGADVNAKDVFDWTPLHVAAHFGHLEIVEVLLKAGADVNAQDRAGETPADLAAQAGHEDIAEVLQKAA	120	7870
